Measurements: patent US11555213B2, “Nucleic acid encoding a modified homoserine dehydrogenase” (CJ CHEILJEDANG CORPORATION, priority 2018, dated 2023)
Numbering of substitutions follows the chain as printed. Numbers in names are those of the source.

B1: T285I: Hom (SEQ ID NO: 10), threonine at position 285 mutated to isoleucine (protein)
chain: MTSASAPSFNPGKGPGSAVGIALLGFGTVGTEVMRLMTEYGDELAHRIGGPLEVRGIAVSDISKPREGVAPELLTEDAFALIEREDVDIVVEVIGGIEYPREVVLAALKAGKSVVTANKALVAAHSAELADAAEAANVDLYFEAAVAGAIPVVGPLRRSLAGDQIQSVMGIVNGTTNFILDAMDSTGADYADSLAEATRLGYAEADPTADVEGHDAASKAAILASIAFHTRVTADDVYCEGISNISAADIEAAQQAGHTIKLLAICEKFTNKEGKSAISARVHPILLPVSHPLASVNKSFNAIFVEAEAAGRLMFYGNGAGGAPTASAVLGDVVGAARNKVHGGRAPGESTYANLPIADFGETTTRYHLDMDVEDRVGVLAELASLFSEQGISLRTIRQEERDDDARLIVVTHSALESDLSRTVELLKAKPVVKAINSVIRLERD
modifications: Hom (KFCC10881-1)
B2: G378W: Hom (SEQ ID NO: 12), glycine at position 378 mutated to tryptophan (protein)
chain: B1 chain with I285T, G378W
modifications: Hom (KFCC10881-19)
B3: G378S: Hom (SEQ ID NO: 13), glycine at position 378 mutated to serine (protein)
chain: B1 chain with I285T, G378S
modifications: Hom (KFCC10881-22)
B4: R398Q: Hom (SEQ ID NO: 11), arginine at position 398 mutated to glutamine (protein)
chain: B1 chain with I285T, R398Q
modifications: Hom (KFCC10881-14)

Tested on: homoserine dehydrogenase (Hom)
Assay: Measurement of activity of homoserine dehydrogenase in crude extracts, desensitization by L-threonine
Assay type: biochemical, Corynebacterium glutamicum
Details: 10 mM L-threonine, unlike the wild-type Hom
Method: The activity of the enzyme Hom was measured in the prepared strains. The wild-type strain ATCC13032 in a control group and CTR-T285I, CTR-R398Q, CTR-G378W, and CTR-G378S prepared in Example 4 were inoculated into 25 mL of the seed medium, and then cultured until reaching the late log phase. The cells were recovered by centrifugation, washed twice with a 0.1 M potassium phosphate buffer (pH 7.6), and finally suspended in 2 mL of the same buffer containing glycerol at a concentration of 30%. The cell suspension was physically disrupted by a conventional glass bead vortexing method for 10 minutes, and then the supernatant was recovered through two centrifugations (13,000 rpm, 4° C., 30 minutes) and used as a crude extract for measuring the activity of the enzyme Hom. For the measurement of the activity of Hom, a coenzyme solution (0.1 mL) was added to a reaction solution for measuring the enzyme activity (a potassium phosphate (pH 7.0) buffer, 25 mM NADPH, 5 mM aspartate semi-aldehyde), and then reacted at 30° C. The Hom activity U was defined as the number of NADPH μmol consumed per minute according to the presence of L-threonine (0 mM, 10 mM), and the results of the enzyme activity are shown in Table 2 below.

Molecule	inhibition of Hom activity by L-threonine (desensitization)
B1	inhibition of the activity was reduced
B2	inhibition of the activity was reduced
B3	inhibition of the activity was reduced
B4	inhibition of the activity was reduced
